Drawing on patent US20240059784A1 (Eli Lilly, published 2024), this text covers EC50 and Kd for two molecules.

As a reminder, the EC50 is the concentration giving half of the maximal effect. The term Kd denotes the free concentration of one partner at which half of the binding sites on the other are occupied at equilibrium, for simple one-to-one binding.

Changes are numbered by the printed parent chain. Names may count otherwise.

Experiment [1] has as its target T1, human TfR (cell-bound) (human, UniProt P02786 1-760).
T1 construct: Endogenous receptor on hCMEC-D3 cells (stated); also called hTFR; human transferrin receptor on hCMEC-D3 cells
As to the kind of experiment: flow cytometry on hCMEC-D3 cells (endogenous human TfR), on ice, PE-labeled secondary. The method, then:
(§1) Human endothelial line hCMEC-D3 (EMD Millipore SC066), endogenously expressing human TfR and MDCK cell line (ATCC CCL-34), engineered to express cynomolgus TfR were utilized to evaluate antibody/protein binding to cell-bound TfR. Cells were grown and maintained at submaximal confluence and detached from cultureware using Accutase cell detachment solution, washed, and allocated at 50000 cells per well for assessment of binding. Cells were treated with a viability stain then subsequently incubated with titrated concentrations of TfR binding proteins on ice. Cells were washed and binding of test antibodies or proteins was detected using a PE-labeled secondary reagent. Cells were then washed and read on the same day using a BioRad ZE5 cytometer. Analysis was performed post-acquisition in FlowJo, analyzing fluorescence of single, viable, non-debris events. EC50 values were derived by plotting geometric median PE intensity values across a given sample titration and fitting a sigmoidal (4PL) response curve in GraphPad Prism 8.3.0.
A general note: Flow cytometry measures light scatter and fluorescence of single cells or particles in a stream.

In experiment [2] the target is T2, cynomolgus TfR (on MDCK cells) (cynomolgus, UniProt H9EXL1 1-760 (rhesus entry)).
T2 construct: whole, on cells; also called Cyno MDCK
As to the kind of experiment: flow cytometry on MDCK cells engineered to express cynomolgus TfR, on ice, PE-labeled secondary. The method, then: as §1

In experiment [3] the target is T3, human TfR ECD (His-tagged) (human, UniProt P02786 89-760).
T3 construct: also called hTfR-ECD-6His; his-tagged hTfR-ECD
As to the kind of experiment: SPR (Biacore 8K), 37 C; TfR ECD amine-coupled to CM4 chip, TBP as analyte; multi-cycle kinetics, 2-state fit; n = 3. The method, then:
(§2) Target human and cynomolgous TfR ECD's were immobilized on a CM4 chip (Cytiva P/N 29104989) using standard NHS-EDC amine coupling. The TfR binding proteins were prepared at a final concentration of 0.3, 0.1, 0.033, 0.01, 0.0033, 0.001, 0.00033, 0.0001 μM respectively by dilution of stock solution into running buffer.
(§3) Binding analysis was performed in a multi-cycle kinetics manner. Each analysis cycle consists of (1) injection of the lowest to highest concentration proteins over all Fc at 50 μL/min for 140 seconds followed by return to buffer flow for 400 seconds to monitor dissociation phase; (2) regeneration of chip surfaces with injection of 3M magnesium chloride, for 30 seconds at 100 μL/min over all cells; and (3) equilibration of chip surfaces with a 50 μL (30-sec) injection of HBS-EP+. Data were processed using standard double-referencing and fit to a 2-state binding model using Biacore 8K Evaluation software, to determine the association rate (kₒₙ, M⁻¹s⁻¹ units), dissociation rate (koff, s⁻¹ units), and Rₘₐₓ (RU units). The equilibrium dissociation constant (KD) is calculated from the relationship KD=koff/kₒₙ, and is in molar units.
On the technique in general: Surface plasmon resonance follows binding to a sensor surface in real time, without labels.

In experiment [4] the target is T4, cynomolgus TfR ECD (cynomolgus).
T4 construct: extracellular domain; amine-coupled in the 37 C assay; also called Cyno TfR; His-tagged cynomolgus TfR ECD
The description is as above. The method, then:
as §2, §3

Experiment [5] deals with T3, human TfR ECD (His-tagged). Kind of experiment: SPR (Biacore 8K), 37 C; TfR ECD amine-coupled to CM4 chip, TBP as analyte; multi-cycle kinetics, 2-state fit; n = 3; conjugated to MAPT siRNA (dsRNA No. 39 in Table 11b). The method, then: as §2, §3

B1: TBP14-MAPT siRNA (dsRNA No. 38 in Table 11b) (antibody)
heavy: EVQLVESGGGLVKPGGSLRLSCVASGFTFSSYSMNWVRQAPGKGLEWVSSISSSSSYIYYADSVKGRFTISRDNAKNSLYLQMNSLRAEDTAVYYCARRHGYSNSDAFDNWGQGTLVTVSSASTKGPSVFPLAPCSRSTSESTAALGCLVKDYFPEPVTVSWNSGALTSGVHTFPAVLQSSGLYSLSSVVTVPSSSLGTKTYTCNVDHKPSNTKVDKRVESKYGPPCPPCPAPEAAGGPSVFLFPPKPKDTLMISRTPEVTCVVVDVSQEDPEVQFNWYVDGVEVHNAKTKPREEQFNSTYRVVSVLTVLHQDWLNGKEYKCKVSNKGLPSSIEKTISKAKGQPREPQVSTLPPSQEEMTKNQVSLMCLVYGFYPSDICVEWESNGQPENNYKTTPPVLDSDGSFFLYSVLTVDKSRWQEGNVFSCSVMHEALHNHYTQKSLSLSLG
light: DIQMTQSPSAMSASVGDRVTITCRASQGISHYLVWFQQKPGKVPKRLIYAASSLQSGVPSRFSGSGSGTEFTLTISSLQPEDFATYYCLQHNSYPWTFGQGTKVEIKRTVAAPSVFIFPPSDEQLKSGTASVVCLLNNFYPREAKVQWKVDNALQSGNSQESVTEQDSKDSTYSLSSTLTLSKADYEKHKVYACEVTHQGLSSPVTKSFNRGEC
chain: ESKYGPPCPPCPAPEAAGGPSVFLFPPKPKDTLMISRTPEVTCVVVDVSQEDPEVQFNWYVDGVEVHNAKTKPREEQFNSTYRVVSVLTVLHQDWLNGKEYKCKVSNKGLPSSIEKTISKAKGQPREPQVYTLPPSQGDMTKNQVQLTCLVKGFYPSDICVEWESNGQPENNYKTTPPVLDSDGSFFLASRLTVDKSRWQEGNVFSCSVMHEALHNHYTQKSLSLSLG
modifications: MAPT siRNA (dsRNA No. 38) conjugated through a linker at the engineered cysteine (A378C, EU numbering, by the name in Table 6b)
notes: Protein-siRNA conjugate of TBP14; also called TBP14-MAPT siRNA conjugate
Take B1: the EC50 in experiment [1] was 764 nM; in experiment [2] it was 453 nM. For the same molecule, the dissociation constant Kd in experiment [3] is 258 nM; in experiment [4], 448 nM.

B2: TBP15-MAPT siRNA (dsRNA No. 39 in Table 11b) (antibody)
heavy: B1 heavy with S128C, C379A
light: B1 light
chain: B1 chain with C160A
modifications: MAPT siRNA (dsRNA No. 39) conjugated through a linker at the engineered cysteine (S124C, EU numbering, by the name in Table 6b)
notes: Protein-siRNA conjugate of TBP15
On to B2, for which the 50% effective concentration (EC50) is 75.6 nM in experiment [1] and 57.1 nM in experiment [2]. The Kd worked out at 199 nM in experiment [4] and 213 nM in experiment [5].
